Results from patent US20120316071A1 (published 2012).

Assays:
[1] = target: T1, rHuman Notch-1/Fc Chimera, CF (R&D Systems Cat#3647-TK) (human, UniProt P46531 19-526); test: ECL Multispot (MSD), 10 nM Fab; blank 372
T1 construct: Bought reagent; Fc part of the bought chimera not given

[2] = target: T2, rHuman ErbB2/Fc Chimera, CF (R&D Systems Cat#1129-ER) (human, UniProt P04626 23-652); test: ECL Multispot (MSD), 10 nM Fab; blank 372
T2 construct: Bought reagent; also called human epidermal growth factor 2 receptor; Fc part of the bought chimera not given

[3] = target: T3, rHuman HGF R/c-MET/Fc Chimera, CF (R&D Systems Cat#358-MT/CF) (human, UniProt P08581 25-932); test: ECL Multispot (MSD), 10 nM Fab; blank 372
T3 construct: Bought reagent; also called HGF R/Fc; hepatocyte growth factor receptor; Fc part of the bought chimera not given

[4] = target: T4, rHuman P-Cadherin/Fc Chimera, CF (R&D Systems Cat#861-PC) (human, UniProt P22223 108-654); test: ECL Multispot (MSD), 10 nM Fab; blank 372
T4 construct: Bought reagent; Fc part of the bought chimera not given

[5] = target: T5, rHuman Erythropoietin R/Fc Chimera, CF (R&D Systems Cat#963-ER) (human, UniProt P19235 25-250); test: ECL Multispot (MSD), 10 nM Fab; blank 372
T5 construct: Bought reagent; also called EPO R; EPO R/Fc; Fc part of the bought chimera not given
T5 sequence (looked up): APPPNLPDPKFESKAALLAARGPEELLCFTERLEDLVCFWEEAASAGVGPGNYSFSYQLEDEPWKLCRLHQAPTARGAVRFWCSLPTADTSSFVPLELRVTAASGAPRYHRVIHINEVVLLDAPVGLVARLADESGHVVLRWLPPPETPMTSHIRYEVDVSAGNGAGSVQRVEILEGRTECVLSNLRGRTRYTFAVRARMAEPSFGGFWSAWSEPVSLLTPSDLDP

[6] = target: T6, rHuman CD44/Fc Chimera, CF (R&D Systems Cat#3660-CD) (human, UniProt P16070 21-220); test: ECL Multispot (MSD), 10 nM Fab; blank 372
T6 construct: Bought reagent; Fc part of the bought chimera not given

[7] = target: T7, rHuman EGF R/Fc Chimera, CF (R&D Systems Cat#344-ER) (human, UniProt P00533 25-645); test: ECL Multispot (MSD), 10 nM Fab; blank 372
T7 construct: Bought reagent; also called epidermal growth factor receptor; Fc part of the bought chimera not given

[8] = target: T8, rHuman IGF-1 sR, CF (R&D Systems Cat#391-GR) (human, UniProt P08069 31-932); test: ECL Multispot (MSD), 10 nM Fab; blank 372
T8 construct: Bought soluble receptor; also called insulin-like growth factor-1 soluble receptor

[9] = target: T1, rHuman Notch-1/Fc Chimera, CF (R&D …); test: ECL Multispot (MSD), 10 nM Fab; blank 198
[10] = target: T2, rHuman ErbB2/Fc Chimera, CF (R&D …); test: ECL Multispot (MSD), 10 nM Fab; blank 198
[11] = target: T3, rHuman HGF R/c-MET/Fc Chimera, CF (R&D …); test: ECL Multispot (MSD), 10 nM Fab; blank 198
[12] = target: T4, rHuman P-Cadherin/Fc Chimera, CF (R&D …); test: ECL Multispot (MSD), 10 nM Fab; blank 198
[13] = target: T5, rHuman Erythropoietin R/Fc Chimera, CF …; test: ECL Multispot (MSD), 10 nM Fab; blank 198
[14] = target: T6, rHuman CD44/Fc Chimera, CF (R&D Systems …); test: ECL Multispot (MSD), 10 nM Fab; blank 198
[15] = target: T7, rHuman EGF R/Fc Chimera, CF (R&D …); test: ECL Multispot (MSD), 10 nM Fab; blank 198
[16] = target: T8, rHuman IGF-1 sR, CF (R&D Systems …); test: ECL Multispot (MSD), 10 nM Fab; blank 198
[17] = target: T1, rHuman Notch-1/Fc Chimera, CF (R&D …); test: ECL Multispot (MSD), 10 nM Fab; blank 320
[18] = target: T2, rHuman ErbB2/Fc Chimera, CF (R&D …); test: ECL Multispot (MSD), 10 nM Fab; blank 320
[19] = target: T3, rHuman HGF R/c-MET/Fc Chimera, CF (R&D …); test: ECL Multispot (MSD), 10 nM Fab; blank 320
[20] = target: T4, rHuman P-Cadherin/Fc Chimera, CF (R&D …); test: ECL Multispot (MSD), 10 nM Fab; blank 320
[21] = target: T5, rHuman Erythropoietin R/Fc Chimera, CF …; test: ECL Multispot (MSD), 10 nM Fab; blank 320
[22] = target: T6, rHuman CD44/Fc Chimera, CF (R&D Systems …); test: ECL Multispot (MSD), 10 nM Fab; blank 320
[23] = target: T7, rHuman EGF R/Fc Chimera, CF (R&D …); test: ECL Multispot (MSD), 10 nM Fab; blank 320
[24] = target: T8, rHuman IGF-1 sR, CF (R&D Systems …); test: ECL Multispot (MSD), 10 nM Fab; blank 320
[25] = target: T9, rHuman IGF-1 sR, CF (R&D Systems Cat#391-GR) (human, UniProt P08069 31-932); test: ECL Multispot (MSD) assay, antigen spotted on plate, 10 nM Fab; blank spot of this row 290
T9 construct: Bought soluble receptor; The column head prints only 'IGF-1'; also called insulin-like growth factor-1 soluble receptor

[26] = target: T10, rHuman HGF R/c-MET/Fc Chimera, CF (R&D Systems Cat#358-MT/CF) (human, UniProt P08581 25-932); test: as above
T10 construct: Bought reagent; also called HGF R/Fc; hepatocyte growth factor receptor; Fc part of the bought chimera not given

[27] = target: T11, rHuman EGF R/Fc Chimera, CF (R&D Systems Cat#344-ER) (human, UniProt P00533 25-645); test: as above
T11 construct: Bought reagent; also called epidermal growth factor receptor; Fc part of the bought chimera not given

[28] = target: T12, rHuman P-Cadherin/Fc Chimera, CF (R&D Systems Cat#861-PC) (human, UniProt P22223 108-654); test: as above
T12 construct: Bought reagent; Fc part of the bought chimera not given

[29] = target: T13, rHuman ErbB2/Fc Chimera, CF (R&D Systems Cat#1129-ER) (human, UniProt P04626 23-652); test: as above
T13 construct: Bought reagent; also called human epidermal growth factor 2 receptor; Fc part of the bought chimera not given

B1: Fab VH1-46_IGHD6-6*01_IGHJ1*01 S102A/S103P/S104F (APF) & L6_IGKJ1*01 (Fab, V domains shown)
VH: QVQLVQSGAEVKKPGASVKVSCKASGYTFTSYYMHWVRQAPGQGLEWMGIINPSGGSTSYAQKFQGRVTMTRDTSTSTVYMELSSLRSEDTAVYYCAREEYAPFSAEYFQHWGQGTLVTVSS
VL: not shown
notes: Tested as a Fab made in E. coli; The heavy chain plasmid A adds CH1 with His6 and Flag tags; The light chain plasmid C adds kappa CL; also called H:APF & L:wt; APF triple mutant
With B1 the ECL signal [1] was 433, the ECL signal [2] was 513 and the ECL signal [3] was 339. The ECL signal [4] was 338, the ECL signal [5] was 252 and the ECL signal [6] was 298. The ECL signal [7] was 460, the ECL signal [8] was 318 and the ECL signal [9] was 336. For the same binder, the ECL signal [10] was 200, the ECL signal [11] was 258 and the ECL signal [12] was 280. It also gave an ECL signal [13] of 228, an ECL signal [14] of 214 and an ECL signal [15] of 255. For the same binder, the ECL signal [16] was 230, the ECL signal [17] was 390 and the ECL signal [18] was 413. The ECL signal [19] was 269, the ECL signal [20] was 301 and the ECL signal [21] was 421. For the same binder, the ECL signal [22] was 385, the ECL signal [23] was 324 and the ECL signal [24] was 270.

B2: Fab VH1-46_IGHD6-6*01_IGHJ1*01 S102A/S103P/S104F/H111F (APFF) & L6_IGKJ1*01 (Fab, V domains shown)
VH: QVQLVQSGAEVKKPGASVKVSCKASGYTFTSYYMHWVRQAPGQGLEWMGIINPSGGSTSYAQKFQGRVTMTRDTSTSTVYMELSSLRSEDTAVYYCAREEYAPFSAEYFQFWGQGTLVTVSS
VL: not shown
notes: Fab format as for APF (CH1 and kappa CL from the expression plasmids); also called APF H111F; H:APFF & L:wt
For B2, the ECL signal [25] was 345, the ECL signal [26] was 493 and the ECL signal [27] was 409. The ECL signal [28] was 461 and the ECL signal [29] was 370.
